Laboratory results taken from patent US20210171647A1 (WUXI BIOLOGICS SHANGHAI, published 2021).
Residue numbers refer to the chain shown, from its start.

Key:
Test in all cases: ELISA, antibody coated, OX40-ECD.His mutant supernatant; relative to silent alanine substitutions;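 further: captured OX40 mutant protein detected with HRP-labelled anti-His antibody, absorbance read-out, scaled to the mean signal of control mutants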
human OX40-ECD.His L29A = molecular target: T1, human OX40-ECD.His L29A (human, UniProt P43489 29-214)
T1 construct: extracellular domain; not shown: C-terminal His-tag
T1 sequence (looked up): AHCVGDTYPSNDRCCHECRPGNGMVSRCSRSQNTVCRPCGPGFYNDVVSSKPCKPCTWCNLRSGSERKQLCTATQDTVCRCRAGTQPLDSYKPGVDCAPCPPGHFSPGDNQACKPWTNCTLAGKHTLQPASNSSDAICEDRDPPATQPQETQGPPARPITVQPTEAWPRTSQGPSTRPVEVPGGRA

human OX40-ECD.His G68A = molecular target: T2, human OX40-ECD.His G68A (human, UniProt P43489 29-214)
T2 construct: extracellular domain; not shown: C-terminal His-tag
T2 sequence (looked up): T1 sequence (looked up) with A1L, G40A

human OX40-ECD.His F71A = molecular target: T3, human OX40-ECD.His F71A (human, UniProt P43489 29-214)
T3 construct: extracellular domain; not shown: C-terminal His-tag
T3 sequence (looked up): T1 sequence (looked up) with A1L, F43A

human OX40-ECD.His P172A = molecular target: T4, human OX40-ECD.His P172A (human, UniProt P43489 29-214)
T4 construct: extracellular domain; not shown: C-terminal His-tag
T4 sequence (looked up): T1 sequence (looked up) with A1L, P144A

human OX40-ECD.His P66A = molecular target: T5, human OX40-ECD.His P66A (human, UniProt P43489 29-214)
T5 construct: extracellular domain; not shown: C-terminal His-tag
T5 sequence (looked up): T1 sequence (looked up) with A1L, P38A

human OX40-ECD.His R95A = molecular target: T6, human OX40-ECD.His R95A (human, UniProt P43489 29-214)
T6 construct: extracellular domain; not shown: C-terminal His-tag
T6 sequence (looked up): T1 sequence (looked up) with A1L, R67A

human OX40-ECD.His T113A = molecular target: T7, human OX40-ECD.His T113A (human, UniProt P43489 29-214)
T7 construct: extracellular domain; not shown: C-terminal His-tag
T7 sequence (looked up): T1 sequence (looked up) with A1L, T85A

human OX40-ECD.His T148A = molecular target: T8, human OX40-ECD.His T148A (human, UniProt P43489 29-214)
T8 construct: extracellular domain; not shown: C-terminal His-tag
T8 sequence (looked up): T1 sequence (looked up) with A1L, T120A

human OX40-ECD.His R169A = molecular target: T9, human OX40-ECD.His R169A (human, UniProt P43489 29-214)
T9 construct: extracellular domain; not shown: C-terminal His-tag
T9 sequence (looked up): T1 sequence (looked up) with A1L, R141A

human OX40-ECD.His S159A = molecular target: T10, human OX40-ECD.His S159A (human, UniProt P43489 29-214)
T10 construct: extracellular domain; not shown: C-terminal His-tag
T10 sequence (looked up): T1 sequence (looked up) with A1L, S131A

B1: 1.134.9-u1-IgG1L (antibody, V domains shown)
VH: QVQLQESGPGLVKPSGTLSLTCAVSGGSISSYNWWSWVRQPPGKGLEWIGEIYHGGNTNYNPSLKSRVTMSVDNSKNQFSLKLSSVTAADTAVYYCARAPGDWGGSPYFDFWGQGTLVTVSS
VL: SSELTQDPAVSVALGQTVRITCQGDNLRTYYASWYQQKPGQAPILLIYGRNKRPSGIPDRFSGSSSGNTASLTITGAQAEDEAAYYCNSRDSSGNPVVFGGGTKLTVL
notes: fully human IgG1, lambda
Fold Change (human OX40-ECD.His L29A): 1
Fold Change (human OX40-ECD.His G68A): 0.998
Fold Change (human OX40-ECD.His F71A): 0.866
Fold Change (human OX40-ECD.His P172A): 1.02
Fold Change (human OX40-ECD.His P66A): 0.913
Fold Change (human OX40-ECD.His R95A): 0.996
Fold Change (human OX40-ECD.His T113A): 0.784
Fold Change (human OX40-ECD.His T148A): 1
Fold Change (human OX40-ECD.His R169A): 1
Fold Change (human OX40-ECD.His S159A): 0.458
